Kd data for 21 molecules are collected here from US20260258115A1.

In general, Kd refers to a measure of binding affinity in units of concentration. Lower therefore signals higher affinity.

B1: ADI-41296 (antibody, V domains shown)
VH: EVQLVESGVEVKKPGESLKISCRGSGYTFYNYWIAWVRQKPGKGLEYMGTIYLDDSETIYSPSFQGEVTISADKSINTAYLQWNSLKASDTANYYCARQMDFYFDVWGRGTLVTVSS
VL: SYELMQPPSVSVSPGQTARITCSGDPLPRESAYWYQQKPGQAPVVIIFNDIERPLGIPERFSGSRSGTTVTLTISGAQAEDEADYYCQSADSRKTFVFGTGTKLTVL
B2: ADI-41320 (antibody, V domains shown)
VH: QVQLVQSGVEVKKPGESLKISCRGFGYSAYNYWIAWVRQKPGKGLEYMGTIYLDDSDTIYSPSFQGEVTISADRSINTAYLQWNSLKASDTANYYCARQMDFYFDVWGRGTLVTVSS
VL: QSVLTQPPSVSVSPGQTARITCSGDPLPRESAYWYQQKPGQAPVVVIFNDIERPLGIPARFSGSRSGTTVTLTISGAQAEDEADYYCQSADSRKTFVFGPGTKLTVL
B3: ADI-41310 (antibody, V domains shown)
VH: QVQLVQSGVEVKKPGESLKISCRGSGYSFYNYWIAWVRQKPGKGLEYMGTIYLDDSDTIYSPSFQGEVTISADKSINTAYLQWNSLKASDTANYYCARQMDFYFDVWGRGTLVTVSS
VL: SYELTQPPSVSVSPGQTARITCSGDPLPRESAYWYQQKPGQAPVVVIFNDIERPLGIPGRFSGSRSGATATLTINGAQAEDEADYYCQSADSRKTFVFGAGTKLTVL
B4: ADI-41254 (antibody, V domains shown)
VH: EVQLVESGGGLVQSGGSLRLSCAASGFTFSSYEMNWVRQAPGKGLEWVSYTTNNGRTIYYADSVKGRFTISRDNAKNSLFLQMNGLRAEDTAVYYCARGIQFSRVDYAMDVWGQGTTVTVSS
VL: SYELTQPPSVSGTPGQRITISCSGSSSNIASNTVNWYQHLPGTAPKLLIYSDNQRPSGVPDRFSGSKSGTSASLAISGLQSEDEADYYCAIWDDSLNASYVFGTGTKLTVL
B5: ADI-41257 (antibody, V domains shown)
VH: QVQLVESGAEVKKPGSSVKVSCKASEGTFSSYGISWVRQAPGQGPEWMGEINPMFGTAKYAQKFQGRVTITVDESTSTADMELSSLTSEDTAVYYCAREFLGQCSETNCPTPSRHLDYWGQGTLVTVSS
VL: EIVMTQSPSSLSASVGDRVTITCRASRTISSYLNWYQQKPGKAPKLLIYATSNLQSGVPSRFSGSGSGADFTLTISSLQPEDFATYYCQQTYSTPGFGPGTKVDIK
B6: ADI-41317 (antibody, V domains shown)
VH: EVQLVESGGGLVQPGGSLRLSCEASRFKFSTFWMAWVRQAPGKGLEWVANIKQDGSETYYLDSVKGRFTISRDNAKNSLFLQMKSLRAEDTAVYYCAGLWWGDLENWFDPWGQGTLVTVSS
VL: QSVLTQPPSVSGAPGQRVTISCTGSSSNLGTGFDVHWYRQLPGTAPQLLIYGSTNRPSGVPDRFSGSKYGTSASLAITGLQAEDEADYYCQSYDSNLRAYVFGTVTKVTVL
B7: ADI-41258 (antibody, V domains shown)
VH: QVQLVQSGGGLVQRGGSLRLSCAASGFSFRSYAMSWVRQAPGKGLEWVSSISDSGDNTFYADSVKGRFSISRDNSRDTLYLQMNSLRAEDTAVYYCARGGYCSGGNCFPFDYWGQGTLVTVSS
VL: SYELMQLPSVSVSPGQTARITCSGDALPKQYGYWYQQKPGQAPVLVIYKDSERPSGIPERFSGSSSGTTVTLTISGVQAEDEADYYCQSADSGGTYVMFGGGTKLTVL
B8: ADI-41288 (antibody, V domains shown)
VH: EVQLVESGGGLVQPGGSLRLSCAASGFTFSSYAMSWVRQAAGKGLEWVSAISGSGDDTFYADSVKDRFIISRDSSKRKVYLQMNSLRVEDTAVYYCAKTDIMVTFGGVVVDAYYFDHWGQGTLVTVSS
VL: ETTLTQSPGTLSLSPGERATLSCRASQFVFRSYLAWYQQRPGQPPRLLIYGASSRATGIPDRFSGRGSGTEFTLTISRLEPEDFAMYYCQHYDSSPPGTFGGGTKVEIK
B9: ADI-41246 (antibody, V domains shown)
VH: EVQLLESGPGLVKPSETLSLTCIVSGGSISSYNWNWIRQPPGKGLEWIGYIYNSGSTNYNPSLKSRVTISVDTSKNQFSLKLSSVTAADTAVYYCARYFDYGSGGFDYWGQGTLVTVSS
VL: ETTLTQSPGTLSLSPGERATLSCRASQSVTSTYLAWYQQKPGQAPRLLIYGASSRATGIPDRFSGSGSGTDFTLTISRLEPEDFAVYYCQQFDSSLTFGGGTKVEIK
B10: ADI-41340 (antibody, V domains shown)
VH: QVQLVQSGAEVKTPGSSVKVSCKASGGTFRSYPITWVRQAPGQGLEWMGTVIPVFDTVNYAPKFQGRVSITADESTNTAYMELSSLRSDDSAVYYCARDLGWLRPMTTVTSPHFDYWGQGTLVTVSS
VL: QSVLTQPASVSGSPGQSITISCTGTSSDVGGYDFVSWYQQHPGKAPKLMISEVTDRPSGVSNRFSGSKSGNTASLTISGLQAEDEADYYCTSYTSSRTYVFGTGTKLTVL
B11: ADI-41294 (antibody, V domains shown)
VH: EVQLLESGGGLVQPGGSLRLSCAASGFTFSAYEMNWVRQAPGKGLEWVSYISSSGSNKHYADSVKGRFTISRDNAKNSLHLHMNSLRAEDTALYYCTRPHQEEWELLPNDAFDLWGQGTMVTVSS
VL: QSALTQPPSASGSPGQSVTISCTGTSTDVGAYTYVSWYQQHPGKAPKLIIYEVYKRPSGVPNRFFGSKSGNTASLTVSGLQAEDEADYYCSSYGGSNNFGLFGGGTKLIVL
B12: ADI-41349 (antibody, V domains shown)
VH: EVQLLESGGGLVQPGRSLRLSCTGSGFTFGDYAMNWVRQAPGKGLEWVGLIRSKDYGGTTEFAASLKGRLTISRDDSKSIAYLQMHSLKTEDSAVYYCTRAHLTDYTDINGYQYYFDYWGQGSPVTVSS
VL: DIQMTQSPSSLSASVGDRVTITCQASQDISNFLNWYQQRPGKAPKLLIHDASNLETGVPSRFSGSGSRTEFTFTISSLQPEDIGTYYCQHYDNFPYTFGQGTKVEIK
B13: ADI-41266 (antibody, V domains shown)
VH: QVQLQQSGPGLVKPSQTLSLTCAISGDSVSSNSAAWNWIRQSPSRGLEWLGRTYYRSKWYNDYAVSVKSRITINPDTSKNQFSLQLNSVTPEDTAVYYCARDLPQVDYFDGASFYFFDFWGQGTLVTVSS
VL: QPVLTQPPSVSVAPGQTASITCGGNIIGNKGVHWYQQKPGRAPVLVVYDDSDRPSGIPERFSGSNSGNTATLTISRVEAADEADYYCQVWDTGSHPVVFGGGTKVTVL
B14: ADI-41237 (antibody, V domains shown)
VH: EVQLVESGGGLVKPGGSLRLSCAASGFTFSDYYMNWIRQAPGKGLEWVSDISPSSSYTNYADSVKGRFTISRDNAKNSLYLQMNSLRAEDTAMYYCARRGSCTGGVCSFDYWGQGTLVTVSS
VL: QPGLTQPPSVSGAPGQRVTISCTGSSSNIGAGYDVNWYQQLPGTAPKLLIYDNSNRPSGVPDRFSGSKSGTSASLAITGLQAEDEADFYCQSYDSSLSGFVFGTGTKVTVL
B15: ADI-41251 (antibody, V domains shown)
VH: EVQLVESGGGLVKPGGSLRLSCAASGFTFSDYYMTWIRQAPGKGLEWVSNISGGSSYTNYADSVKGRFTISRDNAKNSVYLQMNSLRAEDTAVYYCARVGCSGGVCNFFLDYWGQGTLVTVSS
VL: QSVLTQPPSVSGAPGQRVTISCTGSSSNIGAGYDVHWYQQLPGTAPKLLIYDNTNRPSGVPDRFSGSKSGTSASLAITGLQAEDEADYYCQSYDSSLSGYVFGTGTKVTVL
B16: ADI-41245 (antibody, V domains shown)
VH: QVQLVESGGGLVKPGGSLRLSCAASGFSFSAYYMSWIRQAPGKGLEWISNISGGSSYANYADSVEGRFTISRDNAKNSLYLQMNSLRAEDTAVYYCAREFQTYYYMDVWGKGTTVTVSS
VL: QPVLTQPPSVSGAPGQRVTISCTGSSSNIGAGYEVHWYQQLPGTAPKLLIYGNNNRPSGVPDRFSGSKSGTSASLAITGLQAEDEADYYCQSYDSSLSGSVFGGGTKLTVL
B17: ADI-41343 (antibody, V domains shown)
VH: EVQLVESGGGLVKPGGSLRLSCAASGFTFSSYYMNWVRQAPGKGLEWVSSISGGSSYISYADSVKGRFTISRDNAKNSLYLQMNSLRAEDTAVYYCARVDTPMVRGYYFDYWGQGTLVTVSS
VL: QSVLTQPPSVSGAPGRRVTISCTGSSSNIGAGYDVHWYQQLPGTAPKLLIFANSNRPSGVPDRFSGSKSGTSASLAITGLQAEDEADYYCQSYDSSLSGSVFGGGTKVTVL
B18: ADI-41268 (antibody, V domains shown)
VH: EVQLVESGGGLVKPGGSLRLSCVASGFGFTSYSMNWVRQAPGKGLEWVSSISASSTYIHYADSVKGRFTISRDNARNSLYLQMISLRADDTAVYYCSRDGPTYGSGVHVWGQGTMVTVSS
VL: QSALIQPVSVSGSPGQSITISCTGTRSDVGGYNYVSWYQQHPGKAPKLMIYEVRNRPSGVSDRFSGSKSGNTASLTISGLQAEDEGDYYCSSYTSSDTLFYVFGSGTKLTVL
B19: ADI-41322 (antibody, V domains shown)
VH: QVQLVQSGAEVKKPGSSVRVSCKASGGSFSSYATSWVRQAPGQGLEWMGGIIPMYDAVNYAQKFQGRVTITADESTTTAYMELSSLRSEDTAVYYCARSSGYTGTNFFDYWGQGTLVTVSS
VL: DIQMTQSPSSVSASVGDRVTITCRASQDISSWLAWYQQKPGKAPKLLIYTASSLQSGVPSRFSGSGSGTDFTLTISRLQPEDFATYYCQQANSFPRVTFGGGTKVEIK
B20: ADI-41238 (antibody, V domains shown)
VH: EVQLLESGGGLVKPGGSLRLSCAASGFTFRDYYMSWIRQAPGKGLEWVSYISSSSSYTEYADSVKGRFTISRDNAKKSLYLQMNSLRTEDTAVYYCARVITQAGTGTTYYMDVWGKGTTVTVSS
VL: QSVLTQPPSVSGAPGQRVTISCTGSSSNIGTGYDVHWYQQLPGTAPKLLIYANNNRPSGVPDRFSGSKSGTSASLAITGLQAEDEADYYCQSYDSSLSLVFGGGTKLTVL
B21: ADI-41253 (antibody, V domains shown)
VH: EVQLVQSGPGLVKPSETLSLTCTVSGDSISSSDYSYYWGWIRQPPGKGLEWIASLSYSGKTYSQSSLKSRVIISVDTSKKQFSLKLSSVTAADTAVYYCAVTRCYVCTSEGDSFDMWGQGTMVTVSS
VL: DIVLTQTPGTLSLSPGERATLSCRASQSISGNYLAWYQHKPGQAPRLLIYGASTRATGIPDRFSGSGSGTDFPLTISRLEPEDFAVYYCQQYATSPYTFGQGTKVDIK

For the assay, the target named is RSV prefusion F (preF, DS-Cav1) (Respiratory syncytial virus). As to the kind of experiment: BLI, IgG on sensor, 100 nM antigen. (In general: In BLI a coated tip is dipped into the sample, and binding shifts an interference pattern.)
Regarding B1, the dissociation constant (Kd) stood at 3.35 nM. For B2 the value was 3.2 nM. Take B3: the Kd turned out to be 3.32 nM. Take B4: the Kd was 0.776 nM. As for B5, the figure is 3.81 nM; as for B6, 48.2 nM; as for B7, 0.968 nM. As for B8, the figure is 8.99 nM; as for B9, 3.08 nM; as for B10, 3.51 nM. As for B11, the figure is 0.512 nM; as for B12, 6.25 nM; as for B13, 4.06 nM.

Take B14: the Kd was 0.794 nM. For B15 the value was 0.593 nM; for B16, 0.775 nM. For B17 the value was 0.721 nM; for B18, 0.581 nM; for B19, 2.98 nM. For B20 the value was 1.03 nM.

B21: the dissociation constant Kd was 1.11 nM.
